# Source: paper PMC3196555
# What was measured:
# TrkA = TrkA (UniProt P35739); experiment: co-IP; 293T cells transfected with pCMV5-TrkA and a myc construct, 100 ng/ml NGF for 15 min; RIPA lysate precipitated with anti-TrkA antibody, blotted with anti-TrkA and anti-myc
# myc-SH2B3 (human) = myc-SH2B3 (human) (UniProt Q9UQQ2); experiment: co-IP; 293T cells transfected with pCMV5-TrkA and a myc construct, 100 ng/ml NGF for 15 min; RIPA lysate precipitated with anti-myc antibody, blotted with anti-myc and anti-TrkA
# Sequence of TrkA (P35739 33-799): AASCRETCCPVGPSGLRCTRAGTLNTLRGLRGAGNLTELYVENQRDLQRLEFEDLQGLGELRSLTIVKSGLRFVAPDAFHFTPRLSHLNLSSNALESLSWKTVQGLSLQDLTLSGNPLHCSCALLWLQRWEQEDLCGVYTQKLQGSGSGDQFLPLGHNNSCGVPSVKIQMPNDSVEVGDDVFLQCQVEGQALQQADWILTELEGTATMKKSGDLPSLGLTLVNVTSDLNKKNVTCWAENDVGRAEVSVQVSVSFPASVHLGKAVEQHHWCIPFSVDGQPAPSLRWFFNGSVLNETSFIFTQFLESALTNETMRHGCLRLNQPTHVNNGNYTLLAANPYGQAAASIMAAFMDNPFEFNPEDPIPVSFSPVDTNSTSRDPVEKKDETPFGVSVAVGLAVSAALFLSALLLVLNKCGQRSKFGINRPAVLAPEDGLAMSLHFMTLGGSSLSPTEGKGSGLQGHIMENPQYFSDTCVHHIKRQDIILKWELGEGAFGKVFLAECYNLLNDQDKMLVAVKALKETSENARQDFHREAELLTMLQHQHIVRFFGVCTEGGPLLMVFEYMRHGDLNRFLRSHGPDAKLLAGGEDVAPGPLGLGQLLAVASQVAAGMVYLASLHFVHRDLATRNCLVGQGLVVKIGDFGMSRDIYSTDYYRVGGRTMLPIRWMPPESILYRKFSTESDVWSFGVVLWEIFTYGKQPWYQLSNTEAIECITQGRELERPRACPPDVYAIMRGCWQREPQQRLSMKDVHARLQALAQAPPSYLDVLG
Substance,"relative amount co-precipitated with TrkA, as percent of SH2B1β (TrkA) [%]","relative amount of TrkA co-precipitated, as percent of that with SH2B1β (myc-SH2B3 (human)) [%]"
myc-SH2B3 (from UniProt Q9UQQ2 1-575) (natural protein),88,
TrkA (from UniProt P35739 33-799) (receptor),,10
